The results in this text go back to paper doi:10.1101/2023.06.05.543797, “Crystal structure of SUN1-KASH6 reveals an asymmetric LINC complex architecture compatible with nuclear membrane insertion” (bioRxiv, 2023).

The data set concerns the molecule itself. Put plainly: crystal structure; co-expressed and co-purified SUN1-KASH6 complex at 12 mg/ml; sitting drops, 20°C; crystals at pH 6.0 (1.7 Å) and pH 5.5 (2.0 Å and 2.3 Å).

B1: KASH domain of human JAW1/LRMP (amino-acids 515-555) (peptide, UniProt Q12912 515-555, looked up)
chain: TGQLFQKSVDAAPTQQEDSWTSLEHILWPFTRLRHNGPPPV
notes: JAW1/LRMP (lymphoid restricted membrane protein), human, KASH domain, amino-acids 515-555; also called KASH6; KASH6 peptide; not shown: His6, N-terminal, cleaved; MBP, N-terminal, cleaved
Turning to B1, the binding result is on record as “binds”.
